Data as given in US20060165677A1, “DELETION FORMS OF IgE-DEPENDENT HISTAMINE RELEASING FACTOR HAVING HISTAMINE RELEASING ACTIVITY, HRF-BINDING PEPTIDES AND THE USES THEREOF” (EWHA UNIVERSITY-INDUSTRY COLLABORATION FOUNDATION, priority 2005, published 2006).
Entries after “also recorded” stand apart in the source; their conditions may differ.

Legend:
[1] = test system: phage φ-HBP-2 expressing HRF-binding peptide; experiment: Phage display peptide clone-binding capacity of immobilized HRF forms (ELISA); settings: HRF form immobilized on plate, ELISA at 405 nm
Procedure: Each deletion form of HRF was immobilized on a plastic well, to which phage expressing HRF-binding peptide was added in order to investigate binding capacity of each HRF.
Particularly, each deletion form of HRF dissolved in coating buffer (0.1 M NaHCO3, pH 8.6) at the concentration of 20 μg/Ml was placed on polystyrene microtiter plate by 50 μl, followed by coating at 4° C. for overnight and non-specific binding was blocked with BSA. The plate was washed with 0.1% tween/TBS (TBST) 6 times, to which 30 μl of phage solution diluted in 30 μl of 6% BSA/PBS was added. The solution stood at room temperature for 2 hours. After washing with PBST five times, 100 μl of […] anti-M13 antibody (Pharmacia), diluted in 3% BSA/PBS at the ratio of 1:5000, was added to the solution, followed by standing at room temperature for one hour. After washing 6 times with PBST and once more with PBS, 100 μl of peroxidase substrate solution was added and color development was measured at 405 nm by using ELISA reader (Bio-Rad).

deletion forms of HRF = experiment: Inhibition by HRF-binding peptide of HRF-induced histamine secretion in RBL-2H3 cells; format: cell-based; settings: RBL-2H3 cells sensitized with rat IgE
Procedure: RBL-2H3 cells (ATCC) were cultured in 24-well plate at the concentration of 5×10^4 cells/well, followed by sensitization with rat IgE antibody (0.2 μg/Ml, Serotec) for 60 minutes. The cells were treated with […] of recombinant HRF protein in 5% FBS/MEM medium (positive control). The cells were treated with heptamer peptide (Korean Registered Patent No. 457350B1) with different concentrations (0.0156-15.6 mM). 15 minutes later, rat anti-IgE antibody was added thereto. 4 hours later, supernatant was obtained and the isolated histamine was measured by using histamine analyzer (Astoria Analyzer, Series 300 system).

Del-N35HRF = molecular target: T1, Del-N35HRF (Rattus norvegicus, UniProt P63029); experiment: Inhibition by HRF-binding peptides of Del-N35HRF-induced IL-8 secretion in BEAS-2B cells; format: cell-based; settings: Del-N35HRF 61 nM, peptide 6.1-610 nM, 24 hours
T1 construct: 6xHis (pRSET-A leader) (N); made in house; host or cells: E. coli BL21(DE3) or BL21(DE3)pLysS
T1 sequence (P63029 35-172): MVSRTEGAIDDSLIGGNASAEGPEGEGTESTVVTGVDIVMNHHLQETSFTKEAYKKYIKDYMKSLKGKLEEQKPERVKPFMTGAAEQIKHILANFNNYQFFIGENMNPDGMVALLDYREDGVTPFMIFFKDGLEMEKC
Procedure: The interactions between HRF-binding peptides and deletion forms of HRF were investigated in BEAS-2B cells. Del-N35HRF (61 nM) was treated to BEAS-2B cells by the same manner as described in Example 3. At that time, HRF-binding peptide and its mutant in which alanine was replaced (Korean Registered Patent No. 457350B1), and HRF-binding peptides in which amino acid 1 or 7 was deleted were added to Del-N35HRF with different concentrations (6.1-610 nM), followed by standing at room temperature for 10 minutes, which would be added to the cell lines. 24 hours later, supernatant was obtained and the released IL-8 was quantified by PIERCE.

[2] = test system: IgE sensitized human basophils; experiment: Histamine releasing activity in human basophils according to HRF forms; format: cell-based; settings: compared with wild type HRF
Procedure: The activities of different deletion forms of HRF were compared by investigating histamine secretions in human basophils. 40 Ml of venous blood was taken from a donor with atopic dermatitis. To the blood sample was added 10 mM of EDTA, an anticoagulant, and 10 Ml of dextran containing 6% saline. The solution stood at room temperature for 90 minutes and then supernatant containing leukocytes was separated, followed by centrifugation at 150×g for 8 minutes. The recovered leukocytes were washed twice with PAG-EDTA (4 mM EDTA, 25 mM PIPES, 110 mM NaCl, 5 mM KCl, 0.003% HSA, 0.1% D-glucose), which were left in cold lactate buffer (13.4 mM lactic acid, 140 mM NaCl, 5 mM KCl, pH 3.9) for 3-5 minutes to eliminate IgE adhered on the surface of cells. The cells were washed with 30 Ml of PAG-EDTA twice and resuspended in PAG-EDTA, followed by IgE-sensitization (1 μg/Ml, Serotec) for 2 hours. Then, the cells were washed with IMDM medium (Gibco BRL) supplemented with 5% FBS twice, to which each recombinant protein (rHRF or each deletion form of HRF) prepared in Example <1-3> was added by 20 μg/Ml. 15 minutes later, human anti-IgE antibody was added thereto. Four hours later, supernatant was obtained. The isolated histamine was measured by histamine analyzer (Astoria Analyzer, Series 300 system) (FIG. 6).

BEAS-2B cells = experiment: IL-8 releasing activity in BEAS-2B cells according to HRF forms; format: cell-based; settings: for IL-8 releasing activity at low level of HRF: HRF 1 μg/Ml, lower than minimum level for IL-8 secretion by wild type HRF; for IL-8 releasing activity: compared with wild type HRF
Procedure: The activities of different deletion forms of HRF were compared by investigating IL-8 secretions in BEAS-2B cells (ATCC). BEAS-2B cells were cultured in 48-well plate until they were 70% grown up. Then, the cells were washed with 1% penicillin-streptomycin/BEBM (Clonetics) twice, to which each recombinant protein (RrHRF or each deletion form of HRF) separated in Example <1-3> was added by 1 μg/Ml or 10 μg/Ml. 48 or 24 hours later, supernatant was obtained and IL-8 therein was measured by PIERCE (FIG. 5).

Del-N84C108HRF: deletion form of rat HRF, amino acid 84-108 fragment (TKEAYKKYIKDYMKSLKGKLEEQKP; listed as Rattus norvegicus)
affinity to phage expressing HRF-binding heptamer peptide (HBP2) [1]: high | affinity to phage expressing HRF-binding heptamer peptide (HBP2) ([1]; listed as SEQ ID NO:8): excellent

HBP-2: HRF-binding heptamer peptide having the sequence WYVYPSM (Korean Registered Patent No. 457350B1)
inhibition of histamine releasing by deletion forms of HRF (deletion forms of HRF): inhibits | inhibition of histamine releasing by deletion forms of HRF (deletion forms of HRF; listed as HRF-binding peptide): dose-dependently | inhibition of IL-8 secretion by deletion forms of HRF (Del-N35HRF): inhibits | inhibition of IL-8 secretion by deletion forms of HRF (Del-N35HRF; listed as HRF-binding peptide): dose-dependently

B1: Del-N35HRF: deletion form of rat HRF, amino acid 35-172 fragment; 34 N-terminal residues deleted (protein, listed as Rattus norvegicus)
chain: T1 sequence (P63029 35-172)
histamine releasing activity [2]: more effectively than wild type HRF; also recorded: increased | histamine releasing activity ([2]; listed as SEQ ID NO:3): excellent; also recorded: similarly induced histamine releasing | IL-8 releasing activity at low level of HRF (BEAS-2B cells): detected | IL-8 releasing activity (BEAS-2B cells): greater | IL-8 releasing activity (BEAS-2B cells; listed as SEQ ID NO:3): excellent; also recorded: increased | affinity to phage expressing HRF-binding heptamer peptide (HBP2) [1]: very strong

B2: Del-N11HRF: deletion form of rat HRF, amino acid 11-172 fragment; 10 N-terminal residues deleted (protein, listed as Rattus norvegicus)
chain: DELFSDIYKIREIADGLCLEVEGKMVSRTEGAIDDSLIGGNASAEGPEGEGTESTVVTGVDIVMNHHLQETSFTKEAYKKYIKDYMKSLKGKLEEQKPERVKPFMTGAAEQIKHILANFNNYQFFIGENMNPDGMVALLDYREDGVTPFMIFFKDGLEMEKC
histamine releasing activity [2]: more effectively than wild type HRF; also recorded: increased | histamine releasing activity ([2]; listed as SEQ ID NO:2): similarly induced histamine releasing | IL-8 releasing activity at low level of HRF (BEAS-2B cells): detected | IL-8 releasing activity (BEAS-2B cells): greater | IL-8 releasing activity (BEAS-2B cells; listed as SEQ ID NO:2): increased | affinity to phage expressing HRF-binding heptamer peptide (HBP2) [1]: very strong

B3: RrHRF: recombinant total-length rat HRF, amino acids 1-172 (Accession number U20525) (protein, listed as Rattus norvegicus)
chain: MIIYRDLISHDELFSDIYKIREIADGLCLEVEGKMVSRTEGAIDDSLIGGNASAEGPEGEGTESTVVTGVDIVMNHHLQETSFTKEAYKKYIKDYMKSLKGKLEEQKPERVKPFMTGAAEQIKHILANFNNYQFFIGENMNPDGMVALLDYREDGVTPFMIFFKDGLEMEKC
affinity to phage expressing HRF-binding heptamer peptide (HBP2) [1]: very weak | affinity to phage expressing HRF-binding heptamer peptide (HBP2) ([1]; listed as wild type HRF): weak

B4: Del-C112HRF: deletion form of rat HRF, amino acid 1-112 fragment (protein, listed as Rattus norvegicus)
chain: MIIYRDLISHDELFSDIYKIREIADGLCLEVEGKMVSRTEGAIDDSLIGGNASAEGPEGEGTESTVVTGVDIVMNHHLQETSFTKEAYKKYIKDYMKSLKGKLEEQKPERVK
histamine releasing activity [2]: as much as that of wild type HRF | affinity to phage expressing HRF-binding heptamer peptide (HBP2) [1]: very weak and weak

B5: Del-N39C110HRF: deletion form of rat HRF, amino acid 39-110 fragment (protein, listed as Rattus norvegicus)
chain: TEGAIDDSLIGGNASAEGPEGEGTESTVVTGVDIVMNHHLQETSFTKEAYKKYIKDYMKSLKGKLEEQKPER
affinity to phage expressing HRF-binding heptamer peptide (HBP2) ([1]; listed as SEQ ID NO:5): excellent
